Data taken from patent publication US20190300590A1 (PROTAGONIST THERAPEUTICS, published 2019).
Bridges are numbered along the chain shown (N, C = ends). [ ]: non-standard residue; d: D form. 2Nal = N[C@@H](Cc1ccc2ccccc2c1)C(=O)O; AEF = NCCOc1ccc(C[C@H](N)C(=O)O)cc1; NMeR = CN[C@@H](CCCNC(=N)N)C(=O)O; Cit = NC(=O)NCCC[C@H](N)C(=O)O; αMeL = CC(C)C[C@](C)(N)C(=O)O; NMeK = CN[C@@H](CCCCN)C(=O)O; αMeK = C[C@](N)(CCCCN)C(=O)O; Ac5c = NC1(C(=O)O)CCCC1; Abu = CC[C@H](N)C(=O)O; Dap = NC[C@H](N)C(=O)O; Aib = CC(C)(N)C(=O)O; PEG1 = NCCOCCC(=O)O; AEA = NCCOCC(=O)O; βAla = NCCC(=O)O

Legend:
[1] = target: T1, IL-23R on human cells (IL-23R-expressing DB cells; human NK cells) (human, UniProt Q5VWK5 24-629); experiment: cell-based or functional assay
T1 sequence (looked up): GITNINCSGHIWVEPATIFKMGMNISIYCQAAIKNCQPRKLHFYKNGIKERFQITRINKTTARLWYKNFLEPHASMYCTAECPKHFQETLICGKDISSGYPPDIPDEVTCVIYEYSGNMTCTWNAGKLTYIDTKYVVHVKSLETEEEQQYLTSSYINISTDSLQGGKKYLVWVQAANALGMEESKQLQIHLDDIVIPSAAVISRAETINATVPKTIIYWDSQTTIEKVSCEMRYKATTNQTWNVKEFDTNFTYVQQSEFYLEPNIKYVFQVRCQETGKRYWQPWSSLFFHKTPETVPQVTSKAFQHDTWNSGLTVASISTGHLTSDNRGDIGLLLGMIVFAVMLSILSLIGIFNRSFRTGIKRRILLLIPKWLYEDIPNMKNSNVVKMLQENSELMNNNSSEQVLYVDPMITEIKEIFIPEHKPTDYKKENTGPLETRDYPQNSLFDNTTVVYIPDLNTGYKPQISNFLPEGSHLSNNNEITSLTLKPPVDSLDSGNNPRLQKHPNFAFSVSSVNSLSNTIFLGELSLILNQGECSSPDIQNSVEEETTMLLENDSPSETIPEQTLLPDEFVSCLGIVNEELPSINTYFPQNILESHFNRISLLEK

IL23R_huFC = target: T2, IL23R_huFC (human, UniProt Q5VWK5 24-353); experiment: IL23-IL23R competitive ELISA
T2 sequence (looked up): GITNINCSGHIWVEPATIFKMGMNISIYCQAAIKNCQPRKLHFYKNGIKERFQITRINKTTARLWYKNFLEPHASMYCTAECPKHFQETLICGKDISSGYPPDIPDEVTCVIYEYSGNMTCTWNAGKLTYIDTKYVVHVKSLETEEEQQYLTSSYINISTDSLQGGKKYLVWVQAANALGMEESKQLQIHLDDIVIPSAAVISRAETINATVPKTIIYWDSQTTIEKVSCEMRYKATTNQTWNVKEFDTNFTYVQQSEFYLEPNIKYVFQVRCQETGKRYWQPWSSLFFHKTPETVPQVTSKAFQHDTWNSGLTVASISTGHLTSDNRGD

Binder: Ac-[Abu]QTWQC[AEF][2Nal][αMeL]K(Ac)NG-NH2 (thioether 1-6) [Ac-Cyclo-[[Abu]-QTWQC]-[Phe[4-(2-aminoethoxy)]]-[2-Nal]-[α-MeLeu]-[Lys(Ac)]-NG-NH2]
- pStat3 HTRF IC50 [1]: < 10 nM

Binder: Ac-[Abu]QTWQC[AEF][2Nal][Ac5c]ENN-NH2 (thioether 1-6) [Ac-Cyclo-[[Abu]-QTWQC]-[Phe[4-(2-aminoethoxy)]]-[2-Nal]-[Acvc]-ENN-NH2]
- pStat3 HTRF IC50 [1]: < 10 nM

Binder: Ac-[Abu]QTWQC[AEF][2Nal][αMeL]QNG-NH2 (thioether 1-6) [Ac-Cyclo-[[Abu]-QTWQC]-[Phe[4-(2-aminoethoxy)]]-[2-Nal]-[α-MeLeu]-QNG-NH2]
- pStat3 HTRF IC50 [1]: < 10 nM

Binder: Ac-[Abu]QTWQC[AEF]W[αMeK]K(Ac)NG-NH2 (thioether 1-6) [Ac-Cyclo-[[Abu]-QTWQC]-[Phe[4-(2-aminoethoxy)]]-W-[α-MeLys]-[Lys(Ac)]-NG-NH2]
- pStat3 HTRF IC50 [1]: < 10 nM

Binder: Ac-[Abu]QTWQC[AEF][2Nal][4‑amino‑4‑carboxy‑piperidine]ENN-NH2 (thioether 1-6) [Ac-Cyclo-[[Abu]-QTWQC]-[Phe[4-(2-aminoethoxy)]]-[2-Nal]-[4-amino-4-carboxy-piperidine]-ENN-NH2]
- pStat3 HTRF IC50 [1]: < 10 nM

Binder: Ac-[Abu]QTWQC[AEF][2Nal][αMeL]ENG-NH2 (thioether 1-6) [Ac-Cyclo-[[Abu]-QTWQC]-[Phe[4-(2-aminoethoxy)]]-[2-Nal]-[α-MeLeu]-ENG-NH2]
- pStat3 HTRF IC50 [1]: < 10 nM

Binder: Ac-[Abu]QTWQC[AEF][2Nal][Aib]E[Dap](Ac)G-NH2 (thioether 1-6) [Ac-Cyclo-[[Abu]-QTWQC]-[Phe[4-(2-aminoethoxy)]]-[2-Nal]-[Aib]-E-[Dap(Ac)]-G-NH2]
- pStat3 HTRF IC50 [1]: < 10 nM

Binder: Ac-[Abu]QTWQC[AEF][2Nal][Cit][Dap]NG-NH2 (thioether 1-6) [Ac-Cyclo-[[Abu]-QTWQC]-[Phe[4-(2-aminoethoxy)]]-[2-Nal]-[Cit]-[Dap]-NG-NH2]
- pStat3 HTRF IC50 [1]: < 10 nM

Binder: Ac-CQTWQCYW[dR]ENG[AEA][dK]-NH2 (disulfide 1-6 (inferred)) [Ac-CQTWQCYW-[(D)Arg]-ENG-[AEA]-[(D)-Lys]-NH2]
- IC50 (IL23R_huFC): > 1000 nM

B1: Ac-CRDWQCYWR-[(D)Lys]-FG-[AEP]-[(D)-Lys]-NH2 (peptide)
peptide: Ac-CRDWQCYWR[dK]FG[PEG1][dK]-NH2
modifications: disulfide 1-6
SMILES: CC(=O)N[C@H]1CSSC[C@@H](C(=O)N[C@@H](Cc2ccc(O)cc2)C(=O)N[C@@H](Cc2c[nH]c3ccccc23)C(=O)N[C@@H](CCCNC(=N)N)C(=O)N[C@H](CCCCN)C(=O)N[C@@H](Cc2ccccc2)C(=O)NCC(=O)NCCOCCC(=O)N[C@H](CCCCN)C(N)=O)NC(=O)[C@H](CCC(N)=O)NC(=O)[C@H](Cc2c[nH]c3ccccc23)NC(=O)[C@H](CC(=O)O)NC(=O)[C@H](CCCNC(=N)N)NC1=O
- IC50 (IL23R_huFC): > 1000 nM

B2: Ac-CQTWQCYWR-[N-MeArg]-NG-[AEA]-[(D)-Lys]-NH2 (peptide)
peptide: Ac-CQTWQCYWR[NMeR]NG[AEA][dK]-NH2
modifications: disulfide 1-6
SMILES: CC(=O)N[C@H]1CSSC[C@@H](C(=O)N[C@@H](Cc2ccc(O)cc2)C(=O)N[C@@H](Cc2c[nH]c3ccccc23)C(=O)N[C@@H](CCCNC(=N)N)C(=O)N(C)[C@@H](CCCNC(=N)N)C(=O)N[C@@H](CC(N)=O)C(=O)NCC(=O)NCCOCC(=O)N[C@H](CCCCN)C(N)=O)NC(=O)[C@H](CCC(N)=O)NC(=O)[C@H](Cc2c[nH]c3ccccc23)NC(=O)[C@H]([C@@H](C)O)NC(=O)[C@H](CCC(N)=O)NC1=O
- IC50 (IL23R_huFC): > 1000 nM

Binder: Ac-CQTWQCYW[NMeR]ENG[AEA][dK]-NH2 (disulfide 1-6 (inferred)) [Ac-CQTWQCYW-[N-MeArg]-ENG-[AEA]-[(D)-Lys]-NH2, listing 1 of 2 here]
- IC50 (IL23R_huFC): > 1000 nM

B3: Ac-CQTWQCYWR-[(D)Glu]-NG-[AEA[(D)-Lys]-NH2 (peptide)
peptide: Ac-CQTWQCYWR[dE]NG[AEA][dK]-NH2
modifications: disulfide 1-6
SMILES: CC(=O)N[C@H]1CSSC[C@@H](C(=O)N[C@@H](Cc2ccc(O)cc2)C(=O)N[C@@H](Cc2c[nH]c3ccccc23)C(=O)N[C@@H](CCCNC(=N)N)C(=O)N[C@H](CCC(=O)O)C(=O)N[C@@H](CC(N)=O)C(=O)NCC(=O)NCCOCC(=O)N[C@H](CCCCN)C(N)=O)NC(=O)[C@H](CCC(N)=O)NC(=O)[C@H](Cc2c[nH]c3ccccc23)NC(=O)[C@H]([C@@H](C)O)NC(=O)[C@H](CCC(N)=O)NC1=O
- IC50 (IL23R_huFC): > 1000 nM

B4: Ac-CRDWQCYW-[(D)Arg]-KFG-[AEP]-[(D)-Lys]-NH2 (peptide)
peptide: Ac-CRDWQCYW[dR]KFG[PEG1][dK]-NH2
modifications: disulfide 1-6
SMILES: CC(=O)N[C@H]1CSSC[C@@H](C(=O)N[C@@H](Cc2ccc(O)cc2)C(=O)N[C@@H](Cc2c[nH]c3ccccc23)C(=O)N[C@H](CCCNC(=N)N)C(=O)N[C@@H](CCCCN)C(=O)N[C@@H](Cc2ccccc2)C(=O)NCC(=O)NCCOCCC(=O)N[C@H](CCCCN)C(N)=O)NC(=O)[C@H](CCC(N)=O)NC(=O)[C@H](Cc2c[nH]c3ccccc23)NC(=O)[C@H](CC(=O)O)NC(=O)[C@H](CCCNC(=N)N)NC1=O
- IC50 (IL23R_huFC): > 1000 nM

Binder: Ac-CQTWQCYW[dR][dE]NG[AEA][dK]-NH2 (disulfide 1-6 (inferred)) [Ac-CQTWQCYW-[(D)Arg]-[(D)Glu]-NG-[AEA]-[(D)Lys]-NH2]
- IC50 (IL23R_huFC): > 1000 nM

Binder: Ac-CQTWQCYW[NMeR]ENG[AEA][dK]-NH2 (disulfide 1-6 (inferred)) [Ac-CQTWQCYW-[N-MeArg]-ENG-[AEA]-[(D)-Lys]-NH2, listing 2 of 2 here]
- IC50 (IL23R_huFC): > 1000 nM

B5: Ac-CQTWQCYWR-[N-MeLys]-NG-[AEA]-[(D)-Lys]-NH2 (peptide)
peptide: Ac-CQTWQCYWR[NMeK]NG[AEA][dK]-NH2
modifications: disulfide 1-6
SMILES: CC(=O)N[C@H]1CSSC[C@@H](C(=O)N[C@@H](Cc2ccc(O)cc2)C(=O)N[C@@H](Cc2c[nH]c3ccccc23)C(=O)N[C@@H](CCCNC(=N)N)C(=O)N(C)[C@@H](CCCCN)C(=O)N[C@@H](CC(N)=O)C(=O)NCC(=O)NCCOCC(=O)N[C@H](CCCCN)C(N)=O)NC(=O)[C@H](CCC(N)=O)NC(=O)[C@H](Cc2c[nH]c3ccccc23)NC(=O)[C@H]([C@@H](C)O)NC(=O)[C@H](CCC(N)=O)NC1=O
- IC50 (IL23R_huFC): > 1000 nM

B6: Ac-CRDWQCYW-[N-MeArg]-KFG-[AEP]-[(D)-Lys]-NH2 (peptide)
peptide: Ac-CRDWQCYW[NMeR]KFG[PEG1][dK]-NH2
modifications: disulfide 1-6
SMILES: CC(=O)N[C@H]1CSSC[C@@H](C(=O)N[C@@H](Cc2ccc(O)cc2)C(=O)N[C@@H](Cc2c[nH]c3ccccc23)C(=O)N(C)[C@@H](CCCNC(=N)N)C(=O)N[C@@H](CCCCN)C(=O)N[C@@H](Cc2ccccc2)C(=O)NCC(=O)NCCOCCC(=O)N[C@H](CCCCN)C(N)=O)NC(=O)[C@H](CCC(N)=O)NC(=O)[C@H](Cc2c[nH]c3ccccc23)NC(=O)[C@H](CC(=O)O)NC(=O)[C@H](CCCNC(=N)N)NC1=O
- IC50 (IL23R_huFC): > 1000 nM

B7: Ac-CRDWQCYW-[(D)Arg]-[(D)Lys]-FG-[AEP]-[(D)-Lys]-NH2 (peptide)
peptide: Ac-CRDWQCYW[dR][dK]FG[PEG1][dK]-NH2
modifications: disulfide 1-6
SMILES: CC(=O)N[C@H]1CSSC[C@@H](C(=O)N[C@@H](Cc2ccc(O)cc2)C(=O)N[C@@H](Cc2c[nH]c3ccccc23)C(=O)N[C@H](CCCNC(=N)N)C(=O)N[C@H](CCCCN)C(=O)N[C@@H](Cc2ccccc2)C(=O)NCC(=O)NCCOCCC(=O)N[C@H](CCCCN)C(N)=O)NC(=O)[C@H](CCC(N)=O)NC(=O)[C@H](Cc2c[nH]c3ccccc23)NC(=O)[C@H](CC(=O)O)NC(=O)[C@H](CCCNC(=N)N)NC1=O
- IC50 (IL23R_huFC): > 1000 nM

Binder: Ac-[Abu]QTWQC[AEF][2Nal][Aib]QN[βAla]-NH2 (thioether 1-6) [Ac-Cyclo-[[Abu]-QTWQC]-[Phe[4-(2-aminoethoxy)]]-[2-Nal]-[Aib]-QN-[βAla]-NH2]
- pStat3 HTRF IC50 [1]: < 10 nM

Binder: Ac-CADWECYWHTFG-NH2 (disulfide 1-6 (inferred)) [Ac-CADWECYWHTFG-NH2]
- IC50 (IL23R_huFC): > 1000 nM

Binder: Ac-CATWVCYWHTFG-NH2 (disulfide 1-6 (inferred)) [Ac-CATWVCYWHTFG-NH2]
- IC50 (IL23R_huFC): > 1000 nM

Binder: Ac-CADWKCYWHTFG-OH (disulfide 1-6 (inferred)) [Ac-CADWKCYWHTFG-OH]
- IC50 (IL23R_huFC): > 1000 nM

Binder: Ac-CADWVCYWHKFG-OH (disulfide 1-6 (inferred)) [Ac-CADWVCYWHKFG-OH]
- IC50 (IL23R_huFC): > 1000 nM

Binder: Ac-CADWVCYWHTF[dK]-OH (disulfide 1-6 (inferred)) [Ac-CADWVCYWHTF-[(D)Lys]-OH]
- IC50 (IL23R_huFC): > 1000 nM

Binder: Ac-CADWVCYWHTKG-OH (disulfide 1-6 (inferred)) [Ac-CADWVCYWHTKG-OH]
- IC50 (IL23R_huFC): > 1000 nM

Binder: Ac-CADWVCYWKTFG-OH (disulfide 1-6 (inferred)) [Ac-CADWVCYWKTFG-OH]
- IC50 (IL23R_huFC): > 1000 nM
